# Experimental data as given in patent US7708999B2, “Remedies for arthritis” (Kyowa Hakko Kirin Co., Ltd., priority 2001, dated 2010).
# B1: KM1334: anti-FGF-8 neutralizing monoclonal antibody produced by hybridoma KM1334 (FERM BP-5451), mouse IgG1 subclass (antibody, V domains shown)
# VH: QVQLQQSGAEVARPGASVKLSCKASGYTFTDYYLNWVKQRSGQGLEWIGEIDPGSDSIYYNENLEGRATLTADKSSSTAYMQLNSLTSEDSAVYFCARYGYSRYDVRFVYWGQGTLVTVST
# VL: DVLMTQTPLSLPVSLGDQASISCRSSQSLVHSNGRTYLEWYLQKPGQSPKVLIYKVSNRISGVPDRFSGSGSGTDFTLKISRVEAEDLGVYFCFQGSHVPYTFGGGTKLEIK
# Biological target: T1, FGF-8 (Homo sapiens, UniProt P55075)
# T1 construct: purchased R & D
# T1 sequence (P55075 23-215 isoform P55075-3 limits assumed): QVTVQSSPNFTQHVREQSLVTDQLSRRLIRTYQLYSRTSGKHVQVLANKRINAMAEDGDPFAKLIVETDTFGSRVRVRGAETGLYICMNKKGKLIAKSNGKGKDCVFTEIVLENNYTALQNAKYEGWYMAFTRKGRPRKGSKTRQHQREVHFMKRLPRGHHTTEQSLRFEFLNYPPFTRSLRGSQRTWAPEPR
# Assay: Inhibition by antibody of FGF-8-promoted degradation of extracellular matrix of rabbit chondrocytes
# Assay type: cell-based
# Details: FGF-8 100 ng/mL, 48 hours, 1, 3 or 10 μg/mL tested
# Procedure: Rabbit articular chondrocytes were isolated from both knees and shoulders of 3-week-old New Zealand white female rabbits and cultured according to the method of Tamura et al. (Tamura T. et al., Eur. J. Pharmacol., 419, 269-274, 2001). That is, the joints of both knees and the joints of both shoulders were isolated to collect the epiphyseal cartilages. […] The culture solution was removed, and the amount of glycosaminoglycan in extracellular matrix remaining on the plate was measured by the dimethymethylene blue (DMMB) method (Chandrasekhar S. et al., Anal. Biochem. 161 103-108, 1987). […] To 75 μL of this digested solution were added 25 μL of a guanidine hydrochloride buffer (2.88 mol/L guanidine hydrochloride, 50 mmol/L sodium acetate, pH 6.8) and 200 μL of a DMMB solution, and the absorbance was measured at 530/590 nm. The concentration of glycosaminoglycan of each sample was calculated from the absorbance of chondroitin sulfate (derived from whale cartilages, manufactured by Seikagaku Kogyo) used as a standard. Three experiments were performed for each condition and the mean values and the standard error were calculated.
molecule,measurement,value
B1,antibody concentration at which the promotion of degradation of extracellular matrix of the cartilage with FGF-8 was significantly inhibited,≥ 3 µg/mL
